Assay results published in patent publication US20080274112A1, “Nogo Receptor Antagonists” (priority 2003, published 2008).
“Also recorded” adds a separate entry of the source.

Experiments:
[1] = molecular target: T1, rat NgR1 (sNgR310) fragments (Rattus norvegicus, UniProt Q99M75, A303T/C287S/E284G); assay: Western blot of acid/CNBr fragments of sNgR310 probed with 7E11; format: binding
T1 construct: made in house
T1 sequence (Q99M75 123-310 E284G/C287S/A303T): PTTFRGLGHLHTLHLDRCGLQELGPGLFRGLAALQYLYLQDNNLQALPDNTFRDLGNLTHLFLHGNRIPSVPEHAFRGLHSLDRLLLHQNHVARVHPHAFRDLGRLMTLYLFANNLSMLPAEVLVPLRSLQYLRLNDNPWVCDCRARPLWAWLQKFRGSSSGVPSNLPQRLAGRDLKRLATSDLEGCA
Protocol: (§1) A recombinant fragment of the rat NgR1 that contains all 8 LRR domains and the N- and C-terminal caps (sNgR310) was treated with either acid or cyanogen bromide (CNBr) and separated the fragments by gel electrophoresis. Untreated sNgR310 migrates with an apparent molecular weight of 42 kDa. Acid treatment of sNgR310 produced two major cleavage products of 15 kDa (aa 27-aa 122) and 30 kDa (aa 123-aa 310). CNBr treatment generated three fragments, a 33/35 kDa doublet (aa 27-aa 229), which may represent fragments with heterogeneous glycosylation, a 10 kDa product (aa 241-aa 310), and an 11-amino-acid fragment (aa 230-aa 240), which is not retained on the gel. […] Both the 15 kDa acid fragment and the 35 kDa CNBr fragment contained the sequence LDLSDNAQLRVVDPTT (SEQ ID NO: 1), consistent with 7E11 binding to a single epitope on NgR1.

[2] = molecular target: T2, rat NgR1 (sNgR310) fragments (Rattus norvegicus, UniProt Q99M75, A303T/C287S/C43R/E284G/T53A); assay: as above; format: binding
T2 construct: made in house
T2 sequence (Q99M75 27-310 C43R/T53A/E284G/C287S/A303T): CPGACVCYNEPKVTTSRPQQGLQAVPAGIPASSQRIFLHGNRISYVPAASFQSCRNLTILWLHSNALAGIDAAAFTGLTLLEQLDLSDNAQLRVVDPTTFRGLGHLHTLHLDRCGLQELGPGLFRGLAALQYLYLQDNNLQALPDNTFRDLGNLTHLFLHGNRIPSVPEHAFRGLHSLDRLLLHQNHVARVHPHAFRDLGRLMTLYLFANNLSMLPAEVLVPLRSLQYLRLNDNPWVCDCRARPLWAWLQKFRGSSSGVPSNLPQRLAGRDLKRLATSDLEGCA
Protocol: as §1

[3] = molecular target: T3, rat NgR1 (sNgR310) fragments (Rattus norvegicus, UniProt Q99M75, C43R/T53A); assay: as above; format: binding
T3 construct: made in house
T3 sequence (Q99M75 27-229 C43R/T53A): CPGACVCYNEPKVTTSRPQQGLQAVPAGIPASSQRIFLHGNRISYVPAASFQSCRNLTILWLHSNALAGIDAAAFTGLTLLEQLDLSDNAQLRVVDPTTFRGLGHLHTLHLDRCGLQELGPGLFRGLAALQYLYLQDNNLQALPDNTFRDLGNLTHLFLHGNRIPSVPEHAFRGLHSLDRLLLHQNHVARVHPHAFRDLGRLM
Protocol: as §1

[4] = molecular target: T4, rat NgR1 (sNgR310) fragments (Rattus norvegicus, UniProt Q99M75, A303T/C287S/E284G); assay: as above; format: binding; remark: listed apart in the source
T4 construct: made in house
T4 sequence (Q99M75 241-310 E284G/C287S/A303T): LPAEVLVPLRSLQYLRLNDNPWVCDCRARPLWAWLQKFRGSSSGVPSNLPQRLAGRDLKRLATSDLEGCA
Protocol: as §1

[5] = molecular target: T5, rat NgR1 (sNgR310) fragments (Rattus norvegicus, UniProt Q99M75, C43R/T53A); assay: as above; format: binding; remark: listed apart in the source
T5 construct: made in house
T5 sequence (Q99M75 27-122 C43R/T53A): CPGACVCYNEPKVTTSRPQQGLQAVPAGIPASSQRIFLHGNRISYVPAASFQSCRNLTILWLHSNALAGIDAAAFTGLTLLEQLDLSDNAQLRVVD
Protocol: as §1

[6] = molecular target: T6, human NgR1 (Homo sapiens, UniProt Q9BZR6); assay: Antibody binding to human Nogo receptor-1
T6 sequence (Q9BZR6 27-447): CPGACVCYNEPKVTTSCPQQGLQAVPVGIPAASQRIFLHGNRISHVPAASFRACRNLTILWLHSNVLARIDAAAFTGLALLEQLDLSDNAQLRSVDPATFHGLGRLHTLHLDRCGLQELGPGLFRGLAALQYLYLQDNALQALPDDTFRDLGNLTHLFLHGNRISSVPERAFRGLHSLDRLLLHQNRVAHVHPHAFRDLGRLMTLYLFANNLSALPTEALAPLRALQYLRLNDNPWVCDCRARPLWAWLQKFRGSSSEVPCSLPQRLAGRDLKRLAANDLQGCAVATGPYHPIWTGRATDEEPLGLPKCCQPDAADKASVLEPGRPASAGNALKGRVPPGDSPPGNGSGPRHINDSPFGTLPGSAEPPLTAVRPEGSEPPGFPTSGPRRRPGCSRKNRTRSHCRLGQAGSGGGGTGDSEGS

[7] = molecular target: T7, OM-gp + sNogoR344-Fc (Rattus norvegicus, UniProt Q99M75, A303T/C287S/C43R/E284G/T53A); assay: mAb/Fab inhibition of OM-gp binding to sNogoR344-Fc (ELISA)
T7 construct: amino acid residues 26-344 of rat Nogo receptor-1; made in house
T7 sequence (Q99M75 26-344 C43R/T53A/E284G/C287S/A303T): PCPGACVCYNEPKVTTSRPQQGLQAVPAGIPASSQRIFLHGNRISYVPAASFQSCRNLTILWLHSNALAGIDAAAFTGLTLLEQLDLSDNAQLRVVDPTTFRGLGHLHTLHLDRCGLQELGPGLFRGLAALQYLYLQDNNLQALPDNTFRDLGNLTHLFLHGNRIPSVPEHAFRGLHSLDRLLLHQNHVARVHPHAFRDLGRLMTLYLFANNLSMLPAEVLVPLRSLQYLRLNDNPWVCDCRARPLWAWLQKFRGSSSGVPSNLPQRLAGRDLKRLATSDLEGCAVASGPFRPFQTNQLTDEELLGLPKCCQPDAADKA
Protocol: 0.5 μg of a soluble Nogo receptor-1 fusion protein comprising amino acid residues 26-344 of rat Nogo receptor-1 and the hinge and Fc region of the rat IgG1 molecule (sNogoR344-Fc) produced as described below was immobilized on 250 μg of protein-A- or wheatgerm agglutinin-conjugated SPA beads (Amersham Pharmacia Biotech) for 2 hours at 25° C. SPA beads coupled with Fc-sNogoR-1, anti-Nogo receptor-1 mAb and 1 μl ^125I-Nogo66 (Amersham, 2000 Ci/mmol, 1 nM) in 50 μl of the HEPES-buffered incubation medium (10 mM HEPES, pH 7.4, 0.1% bovine serum albumin, 0.1% ovalbumin, 2 mM MgCl2, 2 mM CaCl2 and protease inhibitors) was added to each sample well. After 16 hours, radioactivity was measured in quadruplicate samples using a TopCount® (Packard). IC50 values were calculated from a curve-fit analysis (FIG. 3) (PRISM, GraphPad Software, NJ). In some experiments, we also used AP-ligand conjugates (e.g. AP-Nogo66) and detected binding by monitoring alkaline phosphatase activity. We also assayed the ability of the mAbs to block binding of the ligands MAG-Fc and AP-OM-gp to Nogo receptor-1.
The calculated IC50 for Nogo66 for 7E11 and 1H2 were 400 nM and 60 nM, respectively. The data from ELISAs monitoring mAb-mediated inhibition of binding of the three ligands to Nogo receptor-1 are summarized in Table 6.
We also performed ELISA binding assays using the Fab-phage 14D5.

7E11 binding to 30 kD acid fragment (aa 123-aa 310) [1]: did not bind | 7E11 binding to intact rat NgR1 (aa 27-aa 310) [2]: bound | 7E11 binding to 35 kDa CNBr fragment (aa 27-aa 229) [3]: bound | 7E11 binding to 10 kDa CNBr fragment (aa 241-aa 310) [4]: did not bind | 7E11 binding to 15 kDa acid fragment (aa 27-aa 122) [5]: bound | binding to human NgR1 [6]: bound; also recorded: binds well | inhibition of binding of OM-gp to sNogoR344-Fc [7]: inhibited binding | EC50 ([7]; curve-fit analysis): 0.15 µM
B1: 7E11: murine monoclonal anti-Nogo receptor-1 antibody, IgG1 kappa, ATCC PTA-4587; immunogen rat Nogo receptor-1 residues 110-125 (antibody, V domains shown)
VH: VQLQESGAELVMPGASVKMSCKASGYTFTDYWMHWVKQRPGQGLEWIGAIDPSDSYSSYNQNFKGKATLTVDGSSSTAYMQLSSLTSEDSAVYYCARRITEAGAWFAYWGQGTTVT
VL: DVVMTQTPLSLPVSLGDQASISCRSSQSLVHSNGNTYLHWYLQKPGQSPKLLIYKVSNRFSGVPDRFSGSGSGTDFTLKISRVDAEDLGVYFCSQSTHVPFTFGGGTKLEIKRADAAPTVSISHH
